Results published in PMC8861016.

Target: LRP6mcherry2 (UniProt O75581)
Assay: FRET or BRET; FRET-based FLIM (EGFP donor lifetime) on live HEK293T cells stably expressing CD44EGFP and LRP6mcherry2, induced with Wnt3a CM 1 h before analysis

Sequence of UniProt O75581 (O75581 20-1613): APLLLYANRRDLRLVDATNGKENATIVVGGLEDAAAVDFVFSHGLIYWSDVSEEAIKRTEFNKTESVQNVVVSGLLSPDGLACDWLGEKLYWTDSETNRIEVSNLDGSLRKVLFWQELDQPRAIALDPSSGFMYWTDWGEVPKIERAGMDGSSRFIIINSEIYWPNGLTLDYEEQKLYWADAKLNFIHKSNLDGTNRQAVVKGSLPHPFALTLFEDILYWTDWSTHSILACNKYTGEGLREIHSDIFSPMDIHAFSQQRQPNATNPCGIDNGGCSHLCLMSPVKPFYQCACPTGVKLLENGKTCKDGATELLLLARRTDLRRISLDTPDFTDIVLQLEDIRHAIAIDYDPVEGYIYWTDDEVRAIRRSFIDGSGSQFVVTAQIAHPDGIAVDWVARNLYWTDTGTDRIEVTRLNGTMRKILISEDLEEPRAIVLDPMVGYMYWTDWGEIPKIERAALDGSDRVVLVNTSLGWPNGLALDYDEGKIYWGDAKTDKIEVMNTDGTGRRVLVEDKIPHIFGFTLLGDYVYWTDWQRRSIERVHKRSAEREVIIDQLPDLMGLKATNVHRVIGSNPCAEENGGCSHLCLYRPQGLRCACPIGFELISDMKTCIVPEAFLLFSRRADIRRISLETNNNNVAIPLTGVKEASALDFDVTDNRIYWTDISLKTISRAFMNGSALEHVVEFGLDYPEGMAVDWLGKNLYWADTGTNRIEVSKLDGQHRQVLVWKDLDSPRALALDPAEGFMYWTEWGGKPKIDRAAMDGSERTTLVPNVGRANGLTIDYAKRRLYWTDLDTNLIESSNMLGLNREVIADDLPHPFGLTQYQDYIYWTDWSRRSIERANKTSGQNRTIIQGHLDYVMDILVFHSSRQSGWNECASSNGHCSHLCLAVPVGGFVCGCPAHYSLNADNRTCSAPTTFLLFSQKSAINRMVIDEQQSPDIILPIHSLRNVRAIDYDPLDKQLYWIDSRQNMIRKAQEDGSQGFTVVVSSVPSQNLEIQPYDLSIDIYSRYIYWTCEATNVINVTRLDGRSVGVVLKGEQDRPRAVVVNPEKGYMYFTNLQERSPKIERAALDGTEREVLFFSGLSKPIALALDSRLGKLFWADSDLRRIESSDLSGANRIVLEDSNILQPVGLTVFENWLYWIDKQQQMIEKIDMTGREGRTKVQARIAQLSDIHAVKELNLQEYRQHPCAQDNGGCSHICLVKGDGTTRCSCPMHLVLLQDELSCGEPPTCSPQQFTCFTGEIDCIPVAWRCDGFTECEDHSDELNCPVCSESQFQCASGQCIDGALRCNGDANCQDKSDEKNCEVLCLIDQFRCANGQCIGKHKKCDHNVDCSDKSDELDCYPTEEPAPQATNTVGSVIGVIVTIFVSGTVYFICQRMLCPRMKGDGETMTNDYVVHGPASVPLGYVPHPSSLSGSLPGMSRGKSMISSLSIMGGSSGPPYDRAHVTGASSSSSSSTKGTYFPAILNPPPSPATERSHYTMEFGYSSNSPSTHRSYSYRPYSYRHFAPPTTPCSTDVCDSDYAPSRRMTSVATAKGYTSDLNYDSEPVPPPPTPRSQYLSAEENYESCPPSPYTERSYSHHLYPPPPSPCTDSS

EGFP donor fluorescence lifetime: 2450 ps | FRET efficiency: 7.5%
Substance: CD44EGFP (from UniProt P16070 21-742) (receptor)
